The target in this assay is T1, recombinant His-tagged NRF2, full length (UniProt Q16236 1-605).
T1 sequence: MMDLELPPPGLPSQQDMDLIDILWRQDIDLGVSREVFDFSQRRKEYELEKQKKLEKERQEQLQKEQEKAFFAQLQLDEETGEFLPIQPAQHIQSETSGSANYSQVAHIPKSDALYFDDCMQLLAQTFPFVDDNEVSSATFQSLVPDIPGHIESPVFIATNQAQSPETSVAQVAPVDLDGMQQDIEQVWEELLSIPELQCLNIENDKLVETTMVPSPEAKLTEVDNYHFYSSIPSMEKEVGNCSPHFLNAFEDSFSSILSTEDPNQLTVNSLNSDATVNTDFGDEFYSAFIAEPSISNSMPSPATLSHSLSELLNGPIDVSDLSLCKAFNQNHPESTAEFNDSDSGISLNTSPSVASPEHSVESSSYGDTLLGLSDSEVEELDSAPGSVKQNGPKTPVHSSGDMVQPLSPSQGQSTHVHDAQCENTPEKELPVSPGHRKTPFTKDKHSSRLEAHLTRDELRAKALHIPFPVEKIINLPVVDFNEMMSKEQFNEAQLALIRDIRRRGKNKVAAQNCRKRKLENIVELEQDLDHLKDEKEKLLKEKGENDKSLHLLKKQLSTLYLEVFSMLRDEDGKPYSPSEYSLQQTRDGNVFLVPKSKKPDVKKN
Description: MST.

The record followed here is PMC12273567 (The Journal of Biological Chemistry, 2025).

B1: recombinant αB-crystallin (natural protein)
chain: MDIAIHHPWIRRPFFPFHSPSRLFDQFFGEHLLESDLFPTSTSLSPFYLRPPSFLRAPSWFDTGLSEMRLEKDRFSVNLDVKHFSPEELKVKVLGDVIEVHGKHEERQDEHGFISREFHRKYRIPADVDPLTITSSLSSDGVLTVNGPRKQVSGPERTIPITREEKPAVTAAPKK
As for B1, the Kd amounted to 859 ± 70.1 nM.
